# In the DeepSol protein solubility set:
# Test: soluble on expression in E. coli; label from the status in PepcDB or PDB records
row,Sequence,soluble on expression in E. coli
1,GPGSMPSGVTHSLSLSSLPVVSLLPRWHKAEVVSHRQLTPTATSAQERAKRGKTSVLAAANTAAMTATESKGFAELYHQLLQDGVQLQKELEAYYLRQEGYIRKRVAVLDEMQENIADERRCLELQHQECRAQISTTRKQAASFLSDERKVSQAVRHAQPFLAAQEAEIDKRLDELQREKEREDTALLNVMARQEALGKQEALLACRERQRFLEEQDLQKALIEMRSLNREMEERRKSLLRKHGTVADWDRKLESRERELLVCQDQLRENLKALEQEENALGIHPAQRTAVAPAVSQRTVMDDHDMSIEHDSACEEIDYED,not soluble
2,MQDFLWKSCAIMGTMKLRIEQDDQYKELEIHITYGQKDKLIERILGFLETVDRQLSCYQEGRKYLVNFSDIYYIESVDKKTFVYLADEIYQTDLRLYQLLHDLQHDGFVQISKSCLLNINVLENIRPLFNSRMEATLLNGERVIVNRRYLPDVKEALKGIQ,not soluble
3,MAEGQIIKALSGFYYVLSEGRVFQCRGRGVFRKKKVTPLVGDRVVFQATSETEGYILEIGERQNELVRPPIANVEQAILVFSAVSPDFSAKLLDRFLVLVESKRIAPIIVISKIDLLDGESKEEIARYVHDYRSIGYDVIETSAVTKGGLDELALRLRGRVSVVAGQSGVGKSSLLNALRPDLRLKTGDISTHLGRGKHTTRHVELLEVAGGLVADTPGFGALEFDQIELDELPHYFPEFRTYGEGCKFRGCLHIAEPKCAVREAVEAGEIPSYRYDHYVSFVAEMKERKPRY,not soluble
4,MSLNEIDNKLFLVYVGGTAPGANIELHDIRFVVGPSMEETYPAIRKGWFGTQKGLHLDSFVHLHHVDGYRIHLTSEAHEKPEEKRLYFVNFGGYFPNKLAEYHDFTVVVADSPQSAKQLARAQFSKAGLADAEQIHKDDLLAVDDCLCVDLVDNHYVTLEFDGEQQPLVPDWKGYQPLPEGHHHHHH,soluble
5,MGSDKIHHHHHHMTPPPDELLAVRQAVEWAITTRRSVRAFLPKPVTADTVEAILNTARFAATGVNIQPWKVHVLMGAAKDRVCAAIKQIDDDPAVAVMHADEWAYYPKEWTSPYVDRRRAVGWRLYSLLGIEKGDKARMQVQHGRNYQFFGAPVGLFFTVDRLMSEGSLLDYGMFLQNIMVVARTYGLSTCPQAAFMKYHRIIEQELGLGAHEKFVVGMSLGYADEERIENTLASEREPAASFTTFHEK,not soluble
6,MSAPKPFVIGIAGGTASGKTTLAQALARTLGERVALLPMDHYYKDLGHLPLEERLRVNYDHPDAFDLALYLEHAQALLRGLPVEMPVYDFRAYTRSPRRTPVRPAPVVILEGILVLYPKELRDLMDLKVFVDADADERFIRRLKRDVLERGRSLEGVVAQYLEQVKPMHLHFVEPTKRYADVIVPRGGQNPVALEMLAAKALARLARMGAA,soluble
7,MAHHHHHHMDQFIRSRTDWKERVVFRLVWITASRWFGISGLHSQQFYTGAGRDPNLGLARGAEDGEGGSPPRLSVRQDTRAGGCVRHYKVMQDTSTQRKAHESYDCPLGASSGLLECHGAFHKTRCVEARCSNRGGVQFGPTRDPAVGEARRPVRPSPEYCLIFGEIHHNADPGVVASRIDVKRETAEGQ,not soluble
8,MQEDDSVKPFQTVGAHRDLIHCVSFDPHGRRMATCASDMTMAIWDRKPDGNWRRSAHWKCHGGAVWRVIWAHPEFGQIVATCSYDRTIVIWEEQIVRSEKDLKQKESQWIRRTIISDNRSDVTDICFSPRHLGLMMASCNVLGTVRIYEAPDIVDASRWNLIHELQAFHTRCGCVTWSLSRMHRPLIAVGSDEKKAENKKRVVIYENIDGLRKWQRINSLVFDLPCPITDLKFSPISMVDSHQLAVASGDVHVYNIKVARSAILEEDGVENPIQLADYNLIKVALLGDHRKAWRLRYNLMGSVISSTSLDGTLRSWKSLFVNQWVKLSEMNVDDYVPSPEEVRAFISSKTTERLPSQLEKTYF,not soluble
9,MNALPSSAEFSRAVGGDAVSREAVIRIEHLSKTFSDAAGPVLDDVSLTIRRGEIHGIIGRSGAGKSTLVRCINLLERPSAGRVIVSGREITSLRGRALRNARRDIGMIFQHFNVLSSHTVAGNVALPFKVAGLPRAEIARRIPPLLELVGLAHKADAYPSELSGGQKQRVGIARALALDPSVLLCDEATSALDPETTDQILALLRDINRKLGLTIVLITHEMHVVRDIATRVAVLDHGRVVEEGATFDVLAFPKSAVARSFLSGLVAHELPPPVAAQLLPAAVPGSDPVLRIVFTGTAAHDPIVADLVSVFGIQPNILHGRIDYVGDRPLGVLTLVAGGAGEKLPAVLSHLSSLGLVVEVIGHAVRSAVARRHSAARLEHHHHHH,not soluble
10,MTKIAESKIIVGLDIGTSKIAVVVGEVLPDGVINVLGASNCPSKGIDRGGVIDLDAAVNSIQRAIEQAESVSNCQIMGVTLAISGQHITALNESGVIPLSGTVVRKEDIDAAIHIAHSIKLPDG,not soluble
11,MGGSHHHHHHGMASGSAGLSRLHGLFAVYKPPGLKWKHLRDTVELQLLKGLNARKPPAPKQRVRFLLGPMEGSEEKELTLTATSVPSFINHPLVCGPAFAHLKVGVGHRLDAQASGVLVLGVGHGCRLLTDMYNAHLTKDYTVRGLLGKATDDFREDGRLVEKTTYDHVTREKLDRILAVIQGSHQKALVMYSNLDLKTQEAYEMAVRGLIRPMNKSPMLITGIRCLYFAPPEFLLEVQCMHETQKELRKLVHEIGLELKTTAVCTQVRRTRDGFFTLDSALLRTQWDLTNIQDAIRAATPQVAAELEKSLSPGLDTKQLPSPGWSWDSQGPSSTLGLERGAGQ,not soluble
12,MSFRGTVKWFSKDKGYGFITREDTNADVFVHFTDIQMEGFKTLQKGQKVEFDVVEDTKGPRAKNVRVLGE,soluble
13,MQDNSRYTHFLTQHYDAKPQGRDDRYCESIMRRRGLTSDRCKPINTFIHGNKRSIKAICENKNGNPHRENLRISKSSFQVTTCKLHGGSPWPPCQYRATAGFRNVVVACENGLPVHLDQSIFRRP,soluble
14,MLKKLKNFILFSSIFSPIAFAISCSNTGVVKQEDVSVSQGQWDKSITFGVSEAWLNKKKGGEKVNKEVINTFLENFKKEFNKLKNANDKTKNFDDVDFKVTPIQDFTVLLNNLSTDNPELDFGINASGKLVEFLKNNPGIITPALETTTNSFVFDKEKDKFYVDGTDSDPLVKIAKEINKIFVETPYASWTDENHKWNGNVYQSVYDPTVQANFYRGMIWIKGNDETLAKIKKAWNDKDWNTFRNFGILHGKDNSSSKFKLEETILKNHFQNKFTTLNEDRSAHPNAYKQKSADTLGTLDDFHIAFSEEGSFAWTHNKSATKPFETKANEKMEALIVTNPIPYDVGVFRKSVNQLEQNLIVQTFINLAKNKQDTYGPLLGYNGYKKIDNFQKEIVEVYEKAIK,soluble
15,MTADRPALRTGDRDTRLSFGSNLSSFTDYLRGHAPELLPENRIGHRSHSTRGGDGMESGDLAPHGTTIVALTYKGGVLLAGDRRATQGNLIASRDVEAVYVTDEYSAAGIAGTAGIAIELVRLFAVELEHYEKIEGVPLTFDGKANRLASMVRGNLGAAMQGLAVVPLLVGYDLDADDESRAGRIVSYDVVGGRYEERAGYHAVGSGSLFAKSALKKIYSPDSDEETALRAAIESLYDAADDDSATGGPDLTRGIYPTAVTITQAGAVHVSEETTSELARRIVAERTEQGGSAR,soluble
16,MSKVKGDLEKSDKRPPSSMSTGSADSGVFSSGVHASSPSHSQGSSSQSGPPSPTTQLNSLLFETANLIAVNEQLRKEIAENKQIQTNQMRALRYSSNPVDQPFVANSISPHHGFPQRPPRGERRMQKPESYKTVICQAWLESKTCTFAENCRFAHGEEELRPAKLESRQNNKYKTKLCDKYTTTGLCPYGKRCLFIHPDNQPNAYIRADKLYEVSQRHALADLRDHVESQIMTGNTRNSYNQQPPPMGGLEMQSSPMKSSSDSSHMRSPMAQMNCETTRPHPSWPLESSSFFLPPEMSSINNNNLMSPFETPFPNGSTGIQPHFVTAKRRAAFPPVPSNFQQDDDNMSSIPGFDHLAEDMAKHLELW,not soluble
17,MTSSNKILLVFLLFFCIQDVASENGLDVSALSGKSKKFFFDMTKQVMGVPSLKPENLAAQAFFRSFLDKYTKLDDKVKNDMTQHVPKATKLFDAAAKKYNIDPSSAFKMLSTFFETFKKGASSEMASKGLQMAGKLLGGKGSGGGGGLLGFLGTRR,not soluble
18,MADDRGVFPGQWALSGGGVESGERIEEALRREIREELGEQLLLTEITPWTFSDDIRTKTYADGRKEEIYMIYLIFDCVSANREVKINEEFQDYAWVKPEDLVHYDLNVATRKTLRLKGLL,not soluble
